Results on one molecule are retold here after patent publication US6495314 (Scripps Research, dated 2002).

One assay deals with BSA (UniProt P02769 25-607). Put plainly: C3G peptide affinity column, stepwise NaCl washes, A280 and mass spectrometry. The procedure: The column was washed with 4 mL each of 50 mM NaCl, 100 mM NaCl, 200 mM NaCl, 300 mM NaCl, 400 mM NaCl, 500 mM NaCl and 1000 mM NaCl, 0.1 M phosphate, pH 7.0 buffer. The column was then washed with 1 M NH_2OH 200 mM NH_4CO_3 pH 6.0 (4 mL) and finally eluted in 6M Gn.HCl 100 mM phosphate pH 6.5 (4 mL). Samples from all column fractions were monitored by absorbance at 280 nm and by HPLC.
Chain of BSA (P02769 25-607 limits assumed): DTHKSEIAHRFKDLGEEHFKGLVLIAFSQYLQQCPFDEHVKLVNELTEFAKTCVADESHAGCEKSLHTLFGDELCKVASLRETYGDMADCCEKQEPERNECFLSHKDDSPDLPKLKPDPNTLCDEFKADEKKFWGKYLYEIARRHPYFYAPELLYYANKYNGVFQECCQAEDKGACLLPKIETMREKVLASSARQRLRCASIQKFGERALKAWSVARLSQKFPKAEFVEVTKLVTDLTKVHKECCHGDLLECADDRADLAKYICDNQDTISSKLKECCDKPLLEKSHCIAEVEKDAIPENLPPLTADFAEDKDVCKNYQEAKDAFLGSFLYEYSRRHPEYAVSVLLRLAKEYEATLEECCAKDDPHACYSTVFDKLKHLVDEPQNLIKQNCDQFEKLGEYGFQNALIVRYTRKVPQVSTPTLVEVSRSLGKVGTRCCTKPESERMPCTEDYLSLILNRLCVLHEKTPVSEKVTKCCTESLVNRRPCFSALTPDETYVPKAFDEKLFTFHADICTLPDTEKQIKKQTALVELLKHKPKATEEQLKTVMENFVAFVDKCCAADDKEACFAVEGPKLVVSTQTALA

Assay [1] deals with T1, synthetic murine cCrk N-terminal SH3 domain (residues 134-191) (murine, UniProt Q64010 134-191).
T1 construct: Made by total chemical synthesis and folded in HEPES/NaCl buffer; also called cCrk(134-191); c-Crk SH3
Briefly: tryptophan fluorescence titration in solution, 12 hours incubation. As to the method:
The resulting synthetic protein domain was then assayed for its affinity for two different proline-rich peptides. […] This change in solvent exposure leads to an increase in the fluorescence intensity of the tryptophan sidechain which can be monitored as a function of increasing ligand concentration (Feng et al. *Science* 1994.266, 1241–1245).
1994, 3, 1261–1266. The purified and lyophilized 58 residue polypeptide chain (0.2 mg) was folded by dissolving in 0.6 mL of 20 mM Hepes, 60 mM NaCl, pH 7.3 to produce a folded protein solution (~50 μM).

B1: Ac-CWAcp-PPPALPPKKR.amide, C3G-derived peptide designed for attachment to an affinity column (peptide)
peptide: CWPPPALPPKKR
modifications: N-terminal acetyl; ε-aminocaproic acid (Acp, B) at position 3; C-terminal amide; on the column the Cys side chain is coupled to iodoacetyl agarose (Sulfolink)
notes: also called Acetyl-CWAcp-C3G; Ac-CWBPPPALPPKKR.amide
One may read the Kd as the equilibrium constant for the complex coming apart. As for B1, in the assay with BSA, the binding result is listed as “no binding”. Moreover, the Kd in assay [1] amounted to 2400 nM.
